Like-named read-outs stand apart in the source and are kept apart here.
Legend:
[1] = target: T1, Homo sapiens factor Bb protein (human, UniProt P00751 260-764); assay: SPR single cycle kinetics, IgG on Protein A chip, factor Bb analyte
T1 construct: Bought from CompTech (A155); also called complement factor Bb; human factor Bb
Method: (§1) In order to assess the binding of all humanized variants, single cycle kinetic analysis was performed on supernatants from transfected cell cultures. […] All single cycle kinetic experiments were run at 25° C. with HBS-P+running buffer (pH 7. 4) (GE Healthcare, Little Chalfont, UK).
(§2) Antibodies were diluted in running buffer to a final concentration of 1 μg/ml, based on concentrations assessed by ELISA titer. At the start of each cycle, antibodies were loaded onto Fc2, Fc3 and Fc4 of the Protein A chip (GE Healthcare, Little Chalfont, UK). IgGs were captured at a flow rate of 10 μl/min to give an immobilization level (RL) of ˜63 RU, the theoretical value to obtain an Rmax of ˜50 RU. The surface was then allowed to stabilize. Single cycle kinetic data was obtained with factor Bb (CompTech, Tyler, USA) as the analyte at a flow rate of 30 μl/min to minimize any potential mass transport limitations. Multiple repeats with the reference chimeric antibody were performed to check the stability of the surface and analyte over the kinetic cycles. The signal from the reference channel Fc1 (no antibody) was subtracted from that of Fc2, Fc3 and Fc4 to correct for differences in non-specific binding to a reference surface. A four point, two-fold dilution range from 0. 78 nM to 6. 25 nM factor Bb without regeneration between each concentration was used. The association phase for the four injections of increasing concentrations of factor Bb was monitored for 200 seconds each time and a single dissociation phase was measured for 200 seconds following the last injection of factor Bb. Regeneration of the Protein A surface was conducted using two injections of 10 mM glycine-HCL pH 1. 5.
Single cycle kinetics using cell culture supernatants were performed as described above.

[2] = target: T1, Homo sapiens factor Bb protein; assay: SPR single cycle kinetics; ratio against VH0/Vκ0
Method: All single cycle kinetic experiments were run at 25° C. with HBS-P+running buffer (pH 7. 4) (GE Healthcare, Little Chalfont, UK).
as §2
Single cycle kinetics using cell culture supernatants were performed as described above. […] The relative KD was calculated by dividing the KD of the VH0/Vκ0 reference antibody by that of the humanized variant assayed in the same experiment.

[3] = target: T1, Homo sapiens factor Bb protein; assay: BLI Octet, biotinylated antibody on SA biosensors
Method: Briefly, biotinylated antibodies were loaded onto SA Biosensors equilibrated in PBS, 0.1% BSA, 0.02% Tween-20 (assay buffer). After a 60 second baseline in assay buffer, antibodies were loaded onto the probes for 180 seconds, followed by another 60 second baseline. Association to human (Comptech) or cynomolgus monkey factor Bb (purified in-house) was measured for 300 seconds, followed by a 300 second dissociation. Kinetic parameters were calculated by the Octet Analysis software using a 1:1 binding model.

[4] = target: T1, Homo sapiens factor Bb protein; assay: SPR single cycle kinetics; ratio against VH0/Vκ0; remark: listed apart in the source
Method: as §1, §2
(§3) The sensorgrams and fitted data for the single cycle kinetics are shown in FIGS. 1A-1D and the kinetic parameters measured for the interaction of factor Bb with each antibody are shown in Table 7. The relative KD was calculated by dividing the KD of the VH0/Vκ0 reference antibody by that of the humanized variant assayed in the same experiment.

[5] = target: T1, Homo sapiens factor Bb protein; assay: SPR single cycle kinetics, IgG on Protein A chip, factor Bb analyte; remark: listed apart in the source
Method: as §1, §2, §3

T1 sequence (P00751 260-764 limits assumed): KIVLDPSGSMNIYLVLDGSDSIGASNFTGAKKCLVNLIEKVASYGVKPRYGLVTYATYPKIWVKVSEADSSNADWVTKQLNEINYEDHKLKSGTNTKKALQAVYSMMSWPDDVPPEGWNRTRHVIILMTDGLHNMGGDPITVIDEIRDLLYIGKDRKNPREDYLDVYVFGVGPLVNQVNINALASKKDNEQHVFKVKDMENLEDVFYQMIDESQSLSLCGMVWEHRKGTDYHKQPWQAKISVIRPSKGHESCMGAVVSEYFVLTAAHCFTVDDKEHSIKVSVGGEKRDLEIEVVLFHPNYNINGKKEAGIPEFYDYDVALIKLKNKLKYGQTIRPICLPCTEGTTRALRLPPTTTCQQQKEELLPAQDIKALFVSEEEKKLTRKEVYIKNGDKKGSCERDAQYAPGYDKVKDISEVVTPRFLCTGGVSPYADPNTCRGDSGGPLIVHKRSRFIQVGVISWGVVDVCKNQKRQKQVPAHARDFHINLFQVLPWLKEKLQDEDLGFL

Binder	Kd [1] [nM]	koff [1] [s⁻¹]	kon [1] [M⁻¹ s⁻¹]	Relative KD [2]	Kd [3] [nM]	Relative KD [4]	Kd [5] [nM]	koff [5] [s⁻¹]	kon [5] [M⁻¹ s⁻¹]
VH0/Vκ3 (antibody, V domains shown, constant regions not restated, the humanisation used IgG4v1 heavy chain and kappa light chain vectors) VH: EVQLVESGGALVKPGGSLKLSCAASGFTFSNYAMSWVRQTPEKRLEWVATISNRGSYTYYPDSVKGRFTISRDNAKNTLYLQMSSLRSEDTALYYCARERPMDYWGQGTSVTVSS VL: DIQMTQSPSTLSASVGDRVTITCKASQDVGTAVAWYQQKPGQPPKLLIYWASTRHTGVPDRFSGSGSGTDFTLTISSLQAEDFAVYFCHQHSSNPLTFGQGTKLEIK	2.27	0.00128	563000	1.28					
Anti-factor Bb mouse monoclonal antibody (antibody, V domains shown, Mouse monoclonal antibody from a hybridoma; also called murine parental antibody; parent anti-factor Bb antibody) VH: EVQLVESGGALVKPGGSLKLSCAASGFTFSNYAMSWVRQTPEKRLEWVATISNRGSYTYYPDSVKGRFTISRDNAKNTLYLQMSSLRSEDTALYYCARERPMDYWGQGTSVTVSS VL: DIVMTQSHKFMSTSVGDRVSITCKASQDVGTAVAWYQQKPGQSPKLLIYWASTRHTGVPDRFTGSGSGTDFTLTITNVQSEDLAVYFCHQHSSNPLTFGAGTKLELK					1.9				
VH7/Vκ0 (antibody, V domains shown, Control antibody of the redesign round; cloned into the appropriate expression vector (IgG4v1 and kappa were used in the first round), HEK EBNA supernatant) VH: EVQLVESGGGLVKPGGSLRLSCAASGFTFSNYAMSWVRQTPEKRLEWVATISNRGSYTYYPDSVKGRFTISRDNAKNSLYLQMNSLRAEDTALYYCARERPMDYWGQGTLVTVSS VL: DIVMTQSHKFMSTSVGDRVSITCKASQDVGTAVAWYQQKPGQSPKLLIYWASTRHTGVPDRFTGSGSGTDFTLTITNVQSEDLAVYFCHQHSSNPLTFGAGTKLELK	7.53	0.00207	274000	4.25					
VH1/Vκ0 (control) (antibody, V domains shown) VH: EVQLVESGGGLVKPGGSLRLSCAASGFTFSNYAMSWVRQAPGKGLEWVATISNRGSYTYYPDSVKGRFTISRDNAKNSLYLQMSSLRSEDTALYYCARERPMDYWGQGTSVTVSS VL: DIVMTQSHKFMSTSVGDRVSITCKASQDVGTAVAWYQQKPGQSPKLLIYWASTRHTGVPDRFTGSGSGTDFTLTITNVQSEDLAVYFCHQHSSNPLTFGAGTKLELK						1.76	3.09	0.00116	376000
VH3/Vκ4 (antibody, V domains shown) VH: EVQLVESGGGLVKPGGSLRLSCAASGFTFSNYAMSWVRQAPGKGLEWVATISNRGSYTYYADSVKGRFTISRDNAKNSLYLQMNSLRAEDTALYYCARERPMDYWGQGTLVTVSS VL: DIQMTQSPSTLSASVGDRVTITCRASQDVGTAVAWYQQKPGQPPKLLIYWASTRHTGVPDRFSGSGSGTDFTLTISSLQAEDFAVYYCHQHSSNPLTFGQGTKLEIK						9.83	17.3	0.0046	267000
VH0/Vκ7 (antibody, V domains shown, Control antibody of the redesign round; cloned into the appropriate expression vector (IgG4v1 and kappa were used in the first round), HEK EBNA supernatant) VH: EVQLVESGGALVKPGGSLKLSCAASGFTFSNYAMSWVRQTPEKRLEWVATISNRGSYTYYPDSVKGRFTISRDNAKNTLYLQMSSLRSEDTALYYCARERPMDYWGQGTSVTVSS VL: DIQMTQSPSTLSASVGDRVTITCKASQDVGTAVAWYQQKPGKAPKLLIYWASTRHTGVPDRFSGSGSGTDFTLTISSLQAEDFAVYFCHQHSSNPLTFGQGTKLEIK	2.11	0.00105	496000	1.19					

Now from value to binder:

Kd [1] [nM]	koff [1] [s⁻¹]	kon [1] [M⁻¹ s⁻¹]	Relative KD [2]	Kd [3] [nM]	Relative KD [4]	Kd [5] [nM]	koff [5] [s⁻¹]	kon [5] [M⁻¹ s⁻¹]	Binder
3.29	0.00197	598000	1.86						VH6/Vκ0 (antibody, V domains shown, Control antibody of the redesign round; cloned into the appropriate expression vector (IgG4v1 and kappa were used in the first round), HEK EBNA supernatant) VH: EVQLVESGGGLVKPGGSLRLSCAASGFTFSNYAMSWVRQAPGKRLEWVATISNRGSYTYYPDSVKGRFTISRDNAKNSLYLQMNSLRAEDTALYYCARERPMDYWGQGTLVTVSS VL: DIVMTQSHKFMSTSVGDRVSITCKASQDVGTAVAWYQQKPGQSPKLLIYWASTRHTGVPDRFTGSGSGTDFTLTITNVQSEDLAVYFCHQHSSNPLTFGAGTKLELK
416	0.00145	3490	235						VH5/Vκ0 (antibody, V domains shown, Control antibody of the redesign round; cloned into the appropriate expression vector (IgG4v1 and kappa were used in the first round), HEK EBNA supernatant) VH: EVQLVESGGGLVKPGGSLRLSCAASGFTFSNYAMSWVRQTPEKRLEWVATISNRGSYTYYPDSVKGRFTISRDNAKNSLYLQMSSLRSEDTALYYCARERPMDYWGQGTSVTVSS VL: DIVMTQSHKFMSTSVGDRVSITCKASQDVGTAVAWYQQKPGQSPKLLIYWASTRHTGVPDRFTGSGSGTDFTLTITNVQSEDLAVYFCHQHSSNPLTFGAGTKLELK
521	0.00166	3200	294						VH5/Vκ7 (antibody, V domains shown, Redesigned variant; cloned into the appropriate expression vector (IgG4v1 and kappa were used in the first round), HEK EBNA supernatant) VH: EVQLVESGGGLVKPGGSLRLSCAASGFTFSNYAMSWVRQTPEKRLEWVATISNRGSYTYYPDSVKGRFTISRDNAKNSLYLQMSSLRSEDTALYYCARERPMDYWGQGTSVTVSS VL: DIQMTQSPSTLSASVGDRVTITCKASQDVGTAVAWYQQKPGKAPKLLIYWASTRHTGVPDRFSGSGSGTDFTLTISSLQAEDFAVYFCHQHSSNPLTFGQGTKLEIK
130	0.0173	133000	73.5						VH5/Vκ6 (antibody, V domains shown, Redesigned variant; cloned into the appropriate expression vector (IgG4v1 and kappa were used in the first round), HEK EBNA supernatant) VH: EVQLVESGGGLVKPGGSLRLSCAASGFTFSNYAMSWVRQTPEKRLEWVATISNRGSYTYYPDSVKGRFTISRDNAKNSLYLQMSSLRSEDTALYYCARERPMDYWGQGTSVTVSS VL: DIVMTQSPSFLSASVGDRVTITCKASQDVGTAVAWYQQKPGKAPKLLIYWASTRHTGVPDRFTGSGSGTDFTLTISSLQSEDFAVYFCHQHSSNPLTFGQGTKLEIK
					8.98	15.8	0.00451	285000	VH3/Vκ5 (antibody, V domains shown) VH: EVQLVESGGGLVKPGGSLRLSCAASGFTFSNYAMSWVRQAPGKGLEWVATISNRGSYTYYADSVKGRFTISRDNAKNSLYLQMNSLRAEDTALYYCARERPMDYWGQGTLVTVSS VL: DIQMTQSPSTLSASVGDRVTITCRASQDVGTAVAWYQQKPGQPPKLLIYWASTRHTGVPDRFSGSGSGTDFTLTISSLQAEDFATYYCHQHSSNPLTFGQGTKLEIK
18	0.00303	168000	10.2						VH7/Vκ6 (antibody, V domains shown, Redesigned variant; cloned into the appropriate expression vector (IgG4v1 and kappa were used in the first round), HEK EBNA supernatant) VH: EVQLVESGGGLVKPGGSLRLSCAASGFTFSNYAMSWVRQTPEKRLEWVATISNRGSYTYYPDSVKGRFTISRDNAKNSLYLQMNSLRAEDTALYYCARERPMDYWGQGTLVTVSS VL: DIVMTQSPSFLSASVGDRVTITCKASQDVGTAVAWYQQKPGKAPKLLIYWASTRHTGVPDRFTGSGSGTDFTLTISSLQSEDFAVYFCHQHSSNPLTFGQGTKLEIK
2.37	0.00126	534000	1.34						VH0/Vκ6 (antibody, V domains shown, Control antibody of the redesign round; cloned into the appropriate expression vector (IgG4v1 and kappa were used in the first round), HEK EBNA supernatant) VH: EVQLVESGGALVKPGGSLKLSCAASGFTFSNYAMSWVRQTPEKRLEWVATISNRGSYTYYPDSVKGRFTISRDNAKNTLYLQMSSLRSEDTALYYCARERPMDYWGQGTSVTVSS VL: DIVMTQSPSFLSASVGDRVTITCKASQDVGTAVAWYQQKPGKAPKLLIYWASTRHTGVPDRFTGSGSGTDFTLTISSLQSEDFAVYFCHQHSSNPLTFGQGTKLEIK

Source: patent publication US20210332115A1 (Sanofi, published 2021)
